Assay results from the supplement of paper PMC10126150.
± gives the standard deviation of the averaged measurements.

Tested on: ATP
Experiment: switch fluorescence ratio, 500 uM ATP over buffer (Cy3 cluster intensity, sum of 5 cycles each) (fold (ratio)); higher = stronger signal-on switching upon ATP binding; sequences stand for … in TCGTCGGCAGCGTCAGATGTGTATAAGAGACAGTTTTTTTTTTTTTTTTTTTTTTTTT…TC
Conditions: aptamer strand: ATP DNA aptamer (quencher-CACCTGGGGGAGTATTGCGGAGGAAGG + anchor), 100 nM annealed; ATP concentration: 500 uM
Outline: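 After annealing to 100 nM quencher-labelled ATP aptamer, Cy3-labelled switching-strand clusters on a modified Illumina MiSeq flow-cell were imaged in selection buffer. A second image followed after 15 min with 500 uM ATP at 22 °C, and five such buffer/ATP cycles were done, each separated by NaOH stripping and re-annealing. The fluorescence ratio, averaged per switch-domain sequence, is summed target-cycle over summed buffer-cycle Cy3 intensity per cluster, with clusters outside 100-1000 RFU excluded.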
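Further: ATP exposure 15 min at 22 °C before imaging.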

Row | Sequence | switch fluorescence ratio
1 | CTGTATAGGT | 0.965 ± 0.025
2 | AATTGTGTTT | 1.01 ± 0.021
3 | ACGTATGAAA | 1.09 ± 0.059
4 | TACAAGTTTT | 0.986 ± 0.0093
5 | CGGGTTTTTC | 0.972 ± 0.028
6 | ATAGAGGGAT | 0.98 ± 0.026
7 | ATATAATACG | 1.01 ± 0.024
8 | ACGTGCCGGT | 0.99 ± 0.05
9 | TTAATCCCCC | 1.04 ± 0.042
10 | ATGAATCTAA | 1.01 ± 0.046
11 | ATATTATTTT | 0.9788 ± 0.0047
12 | GGGTTGGTCG | 0.955 ± 0.016
13 | GCTCAATTGG | 1.018 ± 0.006
14 | CAAGTTTTGT | 1.01 ± 0.012
15 | TTGCAGCATG | 1.51 ± 0.68
16 | GGGTCGGCCG | 0.983 ± 0.033
17 | GGGGTTATTC | 0.986 ± 0.026
18 | ATATGTTATG | 0.982 ± 0.015
19 | TGCCTAAGAT | 1 ± 0.021
20 | TCCGGGGGTA | 1.12 ± 0.12
21 | AAGTGGGGGG | 1 ± 0.024
22 | CCTGTGGATC | 1.05 ± 0.042
23 | CGGTGGGCCG | 1.05 ± 0.025

Row | Sequence | switch fluorescence ratio
24 | GGGGCGAGAG | 0.9939 ± 0.0046
25 | TACGGGGTG | 1.05 ± 0.035
26 | ATTGGCTGAC | 1.13 ± 0.029
27 | TAGGCCTGGG | 1 ± 0.0033
28 | TGCGAATTCG | 0.996 ± 0.037
29 | ATTTTGTTTT | 1.01 ± 0.061
30 | TTCCATGGCC | 1.04 ± 0.044
31 | TTTGGGGCTA | 1.05 ± 0.15
32 | TTGCGTTTCC | 1.19 ± 0.23
33 | AACCTCACTC | 1.49 ± 0.13
34 | CAGGATTTGG | 0.985 ± 0.013
35 | CCCGATGTTA | 0.9973 ± 0.0041
36 | ACGTACACTT | 1.45 ± 0.074
37 | TCGGGGTAAG | 1.03 ± 0.015
38 | GATCGCAGCG | 0.986 ± 0.032
39 | GTTCCGCGGT | 1.371 ± 0.0055
40 | GCGGTTGTGC | 0.935 ± 0.051
41 | AGAAAAAGGT | 1.01 ± 0.032
42 | GCATAAAGGG | 0.989 ± 0.019
43 | TTAGGAAAGT | 0.9873 ± 0.0075
44 | AGATCGAAGG | 1.03 ± 0.018
45 | GTGATAAAGG | 1.01 ± 0.03
46 | CATGGGGTGT | 1.01 ± 0.013

Row | Sequence | switch fluorescence ratio
47 | AGAGGTATCG | 0.995 ± 0.019
48 | GTTATAACCG | 0.993 ± 0.024
49 | GTATGGGGGT | 0.963 ± 0.024
50 | AGTGTCTCCT | 1.02 ± 0.058
51 | GATTGCAGTG | 0.9786 ± 0.002
52 | TAGCAGAGGG | 1.01 ± 0.023
53 | GTCTGGCAGT | 1.01 ± 0.043
54 | AGCAGTGTCT | 1.04 ± 0.02
55 | GTTTGGAGGA | 0.96 ± 0.024
56 | TTTGGGATGT | 1.02 ± 0.073
57 | AATCCTGGAG | 1.02 ± 0.011
58 | TCGAAAAGGG | 0.992 ± 0.015
59 | TGTATTTAC | 1.11 ± 0.048
60 | TTGGTTCATG | 0.998 ± 0.015
61 | AAGAGTCGTA | 0.969 ± 0.027
62 | ATGGGATTAA | 1.032 ± 0.0025
63 | GCCATGGACA | 0.9847 ± 0.00086
64 | GGGAAAGGAG | 0.989 ± 0.035
65 | AGGTGCATAA | 1.05 ± 0.017
66 | TTGGGGCTTT | 1.02 ± 0.056
67 | CGAGTCTGCC | 1.04 ± 0.075
68 | AGTTTAATTA | 0.971 ± 0.051
69 | TTAGTAGATT | 0.991 ± 0.036

Row | Sequence | switch fluorescence ratio
70 | TTGGGCCCAA | 1 ± 0.041
71 | CGTGTTTGCG | 0.985 ± 0.031
72 | CAGGAGAAGG | 1.05 ± 0.022
73 | TGTTAGTGTT | 1.03 ± 0.029
74 | GGTGAGGGAG | 0.9998 ± 0.0044
75 | TTTGGCTTGC | 1.01 ± 0.042
76 | AAGAAAGGAA | 0.951 ± 0.029
77 | GTAAGGGGCG | 1.02 ± 0.035
78 | TGCTAAAGGT | 0.9836 ± 0.0095
79 | GAGGGTTGGC | 0.95 ± 0.084
80 | AAAACATTTT | 1.03 ± 0.049
81 | ACGATCAAGG | 1.13 ± 0.024
82 | AAGGAAGGGT | 1.02 ± 0.041
83 | GGGGACATAA | 0.997 ± 0.011
84 | CACGTGTTGC | 1.04 ± 0.03
85 | ATTGGCTTTT | 0.965 ± 0.011
86 | AGAAGTGGTC | 1.01 ± 0.031
87 | AACCCACATC | 1.303 ± 0.002
88 | GGGAAATGTG | 1 ± 0.023
89 | CAGATAAAAA | 1.03 ± 0.02
90 | TATAGGCTTT | 0.97 ± 0.024
91 | ACGTTGGGGC | 1.04 ± 0.027
92 | AACGTGGGTA | 1.01 ± 0.026

Row | Sequence | switch fluorescence ratio
93 | GATGGGGGGT | 1 ± 0.022
94 | AGGAAAATGT | 0.984 ± 0.041
95 | GTTTGGCATA | 1.14 ± 0.19
96 | TTAAGATCAT | 0.969 ± 0.041
97 | ACTTGAACGG | 1.16 ± 0.034
98 | TCACTTAATA | 0.994 ± 0.014
99 | TACGGTAGGA | 0.9836 ± 0.006
100 | TGGTAACGCG | 1 ± 0.014
101 | GCCTTTTCGA | 0.9827 ± 0.0025
102 | GTTATGCCGG | 0.97 ± 0.094
103 | ATTTACAAGT | 1.003 ± 0.0063
104 | CGCTGTCGGA | 1.014 ± 0.0078
105 | AAAGGTAATT | 1.01 ± 0.015
106 | AATTAAGATA | 0.991 ± 0.03
107 | AGGTCTCTTT | 0.982 ± 0.021
108 | CTGGTCAATG | 1.01 ± 0.063
109 | TTTTGCATGA | 1 ± 0.043
110 | GGGGTTTATC | 1.01 ± 0.04
111 | GTAAGGAAAT | 1.013 ± 0.0024
112 | TCGGAGTGCG | 1.006 ± 0.0062
113 | AAATCGTACG | 0.988 ± 0.048
114 | ATAAGGCCCG | 1.04 ± 0.078
115 | TGTTTTGGTG | 1.01 ± 0.027

Row | Sequence | switch fluorescence ratio
116 | GATGTAAAGG | 0.9891 ± 0.006
117 | GAGGTACCGC | 1.05 ± 0.029
118 | AATGGGGTTA | 0.997 ± 0.023
119 | AGAGAAGGTC | 1.017 ± 0.0086
120 | TCCGTGTGGT | 1.07 ± 0.051
121 | TTCCTTGTAG | 1.02 ± 0.017
122 | CTGGTACGGA | 1.0245 ± 0.00032
123 | TCCTGGGAT | 1.01 ± 0.03
124 | TGGTAAATCG | 1.03 ± 0.038
125 | CGATTGTATG | 0.992 ± 0.054
126 | CGGATCGGGG | 1.17 ± 0.15
127 | TGGAGAAAGT | 1.03 ± 0.067
128 | TAGTTTGATG | 0.986 ± 0.017
129 | TGGGGTAAGA | 1.02 ± 0.015
130 | AGCCATAGTC | 1.113 ± 0.0056
131 | TGGGGGAAGT | 1.01 ± 0.029
132 | TCGGAAAATA | 1.01 ± 0.026
133 | AAAATGGTTG | 1.04 ± 0.032
134 | TCAGGGAGTT | 0.969 ± 0.015
135 | GGTTGGGTTT | 0.989 ± 0.03
136 | TTTCCACGGG | 1.18 ± 0.025
137 | GCTGGCTGGC | 1.01 ± 0.11
138 | AGTAATTTGC | 1.02 ± 0.012

Row | Sequence | switch fluorescence ratio
139 | GAACTTGGTT | 1 ± 0.062
140 | CGGGTTTGGT | 1.01 ± 0.011
141 | CGCAGGGTTA | 1.02 ± 0.052
142 | GTTAAATCTT | 1 ± 0.042
143 | GAAGTTGTCA | 1.02 ± 0.047
144 | ATACTATTAT | 1.03 ± 0.013
145 | TCGGATAGAG | 0.949 ± 0.058
146 | GAATCATATG | 0.977 ± 0.011
147 | GAGTATCTGC | 1.01 ± 0.079
148 | TCTTATAAAC | 1.02 ± 0.023
149 | CGTATTGCGC | 0.971 ± 0.038
150 | TTACAAGTTT | 1.14 ± 0.19
151 | TTTTCTGCCG | 1.03 ± 0.045
152 | CTAATTTTTC | 0.9878 ± 0.0026
153 | TTATTTAGGG | 0.991 ± 0.0055
154 | GCGTGTTAGT | 1.023 ± 0.0021
155 | AATTAGTTAT | 0.9835 ± 0.0033
156 | TGTGGGGTCG | 1.01 ± 0.058
157 | ATGTTTATAG | 0.98 ± 0.024
